Four molecules from patent publication US20180185504A1 (Regeneron, published 2018) can be followed below.

For assay [1], the target named is T1, human PRLR on cells (endogenous on T47D, T47D#11, MCF7); introduced in HEK293/hPRLR/STAT5-Luc, 293/hPRLR, … (human, UniProt P16471 25-622).
T1 construct: no tag is stated for these lines; also called prolactin receptor
T1 sequence: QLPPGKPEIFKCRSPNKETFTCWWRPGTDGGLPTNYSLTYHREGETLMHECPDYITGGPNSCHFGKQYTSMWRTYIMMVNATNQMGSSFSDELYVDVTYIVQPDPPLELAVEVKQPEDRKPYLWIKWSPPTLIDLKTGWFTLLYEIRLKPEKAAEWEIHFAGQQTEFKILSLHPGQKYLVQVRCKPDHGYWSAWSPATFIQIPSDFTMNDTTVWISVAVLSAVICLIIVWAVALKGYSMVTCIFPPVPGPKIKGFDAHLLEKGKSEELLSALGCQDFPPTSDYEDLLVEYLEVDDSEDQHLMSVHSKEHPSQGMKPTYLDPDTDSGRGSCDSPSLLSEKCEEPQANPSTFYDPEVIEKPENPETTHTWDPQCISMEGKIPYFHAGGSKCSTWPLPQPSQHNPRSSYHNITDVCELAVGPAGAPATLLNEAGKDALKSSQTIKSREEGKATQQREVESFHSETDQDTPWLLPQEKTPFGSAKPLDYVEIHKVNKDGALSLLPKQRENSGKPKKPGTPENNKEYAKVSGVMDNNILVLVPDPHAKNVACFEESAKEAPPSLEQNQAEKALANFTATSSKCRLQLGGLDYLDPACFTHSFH
Put plainly: imaging of alexa488 intensity on T47D cells. Put shortly: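 T47D cells labelled on ice with alexa488 anti-hFc Fab secondary for 30 min, then held 1 h at 37 °C in PBS+2% FBS or at 4 °C. After fixation and DRAQ5 staining, whole-cell (binding) and intracellular-vesicle (internalization) alexa488 intensities at 37 °C quantified by imaging.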

Assay [2] addresses T1, human PRLR on cells (endogenous on …). Put plainly: FACS on T47D cells.
Assay [3] shares this target. Put plainly: cell-based or functional assay.
Assay [4] addresses T2, mfPRLR.mmh (soluble monomeric macaca fascicularis PRLR) (macaca fascicularis).
T2 construct: soluble monomeric PRLR protein; also called macaca fascicularis (mf) PRLR.mmh; monkey PRLR
T2 chain: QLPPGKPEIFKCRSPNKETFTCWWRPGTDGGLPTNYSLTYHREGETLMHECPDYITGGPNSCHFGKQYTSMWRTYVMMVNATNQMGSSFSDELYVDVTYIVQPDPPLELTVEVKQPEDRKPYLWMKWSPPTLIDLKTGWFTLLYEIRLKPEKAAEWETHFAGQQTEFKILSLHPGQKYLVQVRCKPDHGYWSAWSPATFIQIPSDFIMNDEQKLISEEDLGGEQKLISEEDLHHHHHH
Put plainly: SPR (Biacore), antibody capture, 37 C. The method, then:
(§1) Measurements were conducted on a T200 Biacore instrument. Kinetic association (kₐ) and dissociation (kd) rate constants were determined by processing and fitting the data to a 1:1 binding model using Scrubber 2.0 curve fitting software.
(In general: In SPR one partner is held on a chip, and binding of the other changes the refractive index at the surface.)

In assay [5] the target is T3, hPRLR.mFc (soluble dimeric human PRLR) (human).
T3 construct: dimeric PRLR construct
T3 chain: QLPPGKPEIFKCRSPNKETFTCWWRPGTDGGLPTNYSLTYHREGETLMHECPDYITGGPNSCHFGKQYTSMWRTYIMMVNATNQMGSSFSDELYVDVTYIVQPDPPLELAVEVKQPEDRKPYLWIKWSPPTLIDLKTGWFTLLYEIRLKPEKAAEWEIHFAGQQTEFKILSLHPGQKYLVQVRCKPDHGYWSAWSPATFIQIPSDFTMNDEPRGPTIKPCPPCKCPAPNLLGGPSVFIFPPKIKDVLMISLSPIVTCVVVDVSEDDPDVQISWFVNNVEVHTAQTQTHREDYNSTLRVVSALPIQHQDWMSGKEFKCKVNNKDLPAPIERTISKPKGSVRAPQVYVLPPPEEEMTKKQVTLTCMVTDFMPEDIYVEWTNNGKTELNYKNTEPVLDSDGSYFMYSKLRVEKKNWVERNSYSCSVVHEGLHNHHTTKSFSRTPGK
The assay can be described thus: SPR (Biacore), antibody capture, 37 C. The method, then: as §1

In assay [6] the target is T4, hPRLR.mmh (soluble monomeric human PRLR) (human).
T4 construct: soluble monomeric PRLR protein
T4 chain: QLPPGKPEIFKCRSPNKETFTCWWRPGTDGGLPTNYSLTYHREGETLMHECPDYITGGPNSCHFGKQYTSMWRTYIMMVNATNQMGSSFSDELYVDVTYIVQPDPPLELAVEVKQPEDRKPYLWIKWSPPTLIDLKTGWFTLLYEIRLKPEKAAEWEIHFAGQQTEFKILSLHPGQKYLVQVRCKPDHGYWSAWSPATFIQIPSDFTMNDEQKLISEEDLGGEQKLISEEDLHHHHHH
The assay can be described thus: SPR (Biacore), antibody capture, 37 C. The method, then: as §1

The target of assay [7] is T1, human PRLR on cells (endogenous on …). Put plainly: cell-based or functional assay. The source holds these as a separate data set.

B1: H1H6804P (antibody, human IgG1, V domains shown)
VH: QVTLKESGPVLVKPTQTLSLTCTVSGFSLSDAGMGVSWIRQPPGKALEWLAHIFSNDGKSYSTSLKSRLTISKDTSKRQVVLTMTNMDPVDTATYYCARIRTGTYSLYLDYWGQGTLVTVSS
VL: DIQMTQSPSSLSASVGDRVTITCRASQSINSYLNWYQQKPGKAPKLLLYFASSLQSGVPSRFSGSGSGTDFTLTISSLQPEDFASYYCQESYSTPWTFGQGTKVEIK
notes: human IgG1 Fc (H1H)
In the case of B1, in assay [1], the “% Total Binding relative to Control I” value was determined as 150%. The “FACS Cell Binding (Fold Above Background)” value in assay [2] stood at 34 fold. Besides, in assay [3], the “IC50 of Blocking 5 nM PRL [M] (STAT5-Luc reporter, HEK293/hPRLR/STAT5-Luc cells)” value was 7.89e-09 M and the “Percent Blocking at 100 nM Antibody (STAT5-Luc reporter)” value (“Percent Blocking at 100 nM Antibody” for short) stood at 100%. In assay [4], the Kd is 9.35 nM, the “T 1/2” value was 3 min, the off-rate constant (koff) was found to be 0.00426 s⁻¹ and the on-rate (kon) is 455000 M⁻¹ s⁻¹. In assay [5], the Kd was found to be 0.369 nM, the “T 1/2” value was determined as 56 min, the dissociation rate constant (koff) was 0.000205 s⁻¹ and the kon was determined as 554000 M⁻¹ s⁻¹. Further, in assay [6], the Kd is 6.34 nM, the “T 1/2” value was 3 min, the off-rate (koff) is 0.00385 s⁻¹ and the kon was determined as 607000 M⁻¹ s⁻¹. Besides, the “% Internalization relative to Control I (T47D cells, imaging)” value (“% Internalization relative to Control I” below) in assay [7] was found to be 139%.

B2: H1H6959N2 (antibody, human IgG1, V domains shown)
VH: EVQLVESGGGLVQPGRSLRLSCAASGFTFDDYAMHWVRQAPGKGLEWVSGISWHSGIIGYADSVKGRFTISRDNAKNSLYLQMNSLRTEDAALYYCAKIGSYFYFDSWGQGTLVTVSS
VL: EIVLTQSPGTLSLSPGERATLSCRASQSVSSNYLAWYQQKPGQAPRLLIYGASSRATGIPDRFSGSGSGTDFTLTISRLEPEDFAVYYCQQFGSSGYTFGQGTNLEIK
notes: also called H2M6959N2
For the molecule B2, in assay [1], the “% Total Binding relative to Control I” value worked out at 2%. The “FACS Cell Binding (Fold Above Background)” value in assay [2] is 9 fold. In addition, in assay [3], the “Percent Blocking at 100 nM Antibody” value amounted to 52%. Besides, in assay [4], the Kd turned out to be 370 nM, the “T 1/2” value came out at 0.7 min, the koff is 0.0165 s⁻¹ and the on-rate constant (kon) was 44600 M⁻¹ s⁻¹. Besides, in assay [5], binding was characterised by a dissociation constant (Kd) of 4.51 nM, the “T 1/2” value came to 5 min, the koff came out at 0.0023 s⁻¹ and the kon stood at 509000 M⁻¹ s⁻¹. In addition, in assay [6], binding was characterised by a dissociation constant (Kd) of 681 nM, the “T 1/2” value came out at 0.4 min, the dissociation rate constant (koff) came out at 0.0277 s⁻¹ and the kon was determined as 40600 M⁻¹ s⁻¹. In addition, the “% Internalization relative to Control I” value in assay [7] came to 15.3%.

B3: H1H6960N (antibody, human IgG1, V domains shown)
VH: EVQLVESGGGLVKPGGSLRLSCAASGITFSSYSMNWVRQAPGKGLEWVSSISTRSSLIHYADSVKGRFTISRDNAKNSLYLQMNSLRDEDTAVYYCARWDAAAAFDYWGQGTLVIVSS
VL: DIQLTQSPSFLSASVGDRVTITCWASQGISSYLAWYQQKPGKAPKLLIYVASTLQSGVPSRFSGSGSGTEFTLTISSLQPEDFATYFCQQLNSYPLTFGGGTKVEIK
notes: also called H2M6960N
Turning to B3, in assay [1], the “% Total Binding relative to Control I” value stood at 89.7%. In addition, the “FACS Cell Binding (Fold Above Background)” value in assay [2] was 33 fold. Also, in assay [3], the “IC50 of Blocking 5 nM PRL [M] (STAT5-Luc reporter, HEK293/hPRLR/STAT5-Luc cells)” value was 1.58e-09 M and the “Percent Blocking at 100 nM Antibody” value is 100%. In assay [4], binding was put at a Kd of 14.9 nM, the “T 1/2” value stood at 9 min, the off-rate (koff) came out at 0.00128 s⁻¹ and the on-rate (kon) came to 86400 M⁻¹ s⁻¹. Moreover, in assay [5], the affinity, expressed as Kd, was 0.5 nM; the “T 1/2” value was found to be 78.7 min; the koff turned out to be 0.000147 s⁻¹; the on-rate (kon) was 294000 M⁻¹ s⁻¹. Also, in assay [6], the Kd amounted to 16.2 nM, the “T 1/2” value is 5.8 min, the off-rate (koff) came to 0.00198 s⁻¹ and the kon was determined as 122000 M⁻¹ s⁻¹. For the same molecule, the “% Internalization relative to Control I” value in assay [7] was 120%.

B4: H1H6966N (antibody, human IgG1, V domains shown)
VH: QVQLVQSGAEVQKPGASVKVSCKVSGYTLTALSIHWVRQAPGKGLEWMGNFDPGDGETIHAQKFQGRVTMTGDTSTDTAYMELSSLRSEDTAVYYCVGVTFDYWGQGTLVTVSS
VL: EIVMTQSPATLSVSPGERATLSCRASQSVASNLAWYQQKPGQAPRLLLYGASTRATGIPARFSGSGSGTEFTLTISSLQSEDFALYYCQHYNNWPLTFGGGTKVEIK
notes: also called H2M6966N
As to B4, the “% Total Binding relative to Control I” value in assay [1] came to 111%. In assay [2], the “FACS Cell Binding (Fold Above Background)” value came to 31 fold. Moreover, in assay [3], the “Percent Blocking at 100 nM Antibody” value amounted to 54%. Also, in assay [4], binding was characterised by a dissociation constant (Kd) of 0.982 nM, the “T 1/2” value turned out to be 9.6 min, the koff was 0.0012 s⁻¹ and the kon amounted to 1.22e+06 M⁻¹ s⁻¹. Moreover, in assay [5], the Kd amounted to 0.0672 nM, the “T 1/2” value worked out at 91.3 min, the off-rate (koff) amounted to 0.000127 s⁻¹ and the kon was 1.88e+06 M⁻¹ s⁻¹. In assay [6], the Kd is 0.607 nM, the “T 1/2” value stood at 12 min, the off-rate (koff) was found to be 0.00096 s⁻¹ and the kon was 1.58e+06 M⁻¹ s⁻¹. For the same molecule, the “% Internalization relative to Control I” value in assay [7] was found to be 137%.

One may read the Kd as the equilibrium constant for the complex coming apart. Broadly, the koff is the first-order rate constant of dissociation. Low values mean a long-lived complex, high ones a short-lived complex. What is called kon is the second-order rate constant of association. The low end stands for slower complex formation, the high end for faster complex formation.
